The values below come from paper doi:10.1101/2021.08.20.457142.

First the molecules themselves.
B1: MKK6 D-site peptide / p38-alpha (MAPK14) L195A, full length (parent complex)
chain 1: SQSKGKKRNPGLKIPKEAFEQP
chain 2: MSQERPTFYRQELNKTVWEVPERYQNLSPVGSGAYGSVCAAFDTKTGHRVAVKKLSRPFQSIIHAKRTYRELRLLKHMKHENVIGLLDVFTPARSLEEFNDVYLVTHLMGADLNNIVKCQKLTDDHVQFLIYQILRGLKYIHSADIIHRDLKPSNLAVNEDCELKILDFGLARHTDDEMTGYVATRWYRAPEIMANWMHYNQTVDIWSVGCIMAELLTGRTLFPGTDHIDQLKLILRLVGTPGAELLKKISSESARNYIQSLAQMPKMNFANVFIGANPLAVDLLEKMLVLDSDKRITAAQALAHAYFAQYHDPDDEPVAEPYDQSFESRDFLIDEWKSLTYDEVISFVPPPLDQEEMES

The variants in this test derive from B1.
On to chain 1 S3A, chain 1 L12A, for which the screen value is -1.11 Z-score of the enrichment rate within one screen of 711 sequences.
The result for chain 1 R8A, chain 1 P10A reads -0.354 Z-score of the enrichment rate within one screen of 711 sequences; that for chain 1 K7A, chain 1 P15A, 0.766 Z-score of the enrichment rate within one screen of 711 sequences.
The figure for chain 1 K4A, chain 1 K16A is 0.0782 Z-score of the enrichment rate within one screen of 711 sequences; for chain 1 L12P it is -0.143 Z-score of the enrichment rate within one screen of 711 sequences; for chain 1 L12I it is -0.212 Z-score of the enrichment rate within one screen of 711 sequences.
As to chain 1 L12C, the screen value was -0.618 Z-score of the enrichment rate within one screen of 711 sequences.
Consider chain 1 L12S, for which the screen value is -1.12 Z-score of the enrichment rate within one screen of 711 sequences.
The result for chain 1 L12M reads 0.044 Z-score of the enrichment rate within one screen of 711 sequences; that for chain 1 L12D, -1.05 Z-score of the enrichment rate within one screen of 711 sequences.
The result for chain 1 K6A, chain 1 K7A reads -0.229 Z-score of the enrichment rate within one screen of 711 sequences; that for chain 1 N9L, 1.77 Z-score of the enrichment rate within one screen of 711 sequences; that for chain 1 N9D, 0.0592 Z-score of the enrichment rate within one screen of 711 sequences.
Turning to chain 1 N9Y, the screen value was 1.25 Z-score of the enrichment rate within one screen of 711 sequences.
The figure for chain 1 N9F is 1.54 Z-score of the enrichment rate within one screen of 711 sequences.
In the case of chain 1 N9R, the screen value is 2.08 Z-score of the enrichment rate within one screen of 711 sequences.
chain 1 N9G: the screen value was 1.54 Z-score of the enrichment rate within one screen of 711 sequences.
The figure for chain 1 N9V is 0.914 Z-score of the enrichment rate within one screen of 711 sequences.
The result for chain 1 N9W reads 1.99 Z-score of the enrichment rate within one screen of 711 sequences; that for chain 1 N9Q, 0.874 Z-score of the enrichment rate within one screen of 711 sequences.
The figure for chain 1 S3A, chain 1 K7A is 0.46 Z-score of the enrichment rate within one screen of 711 sequences; for chain 1 G5A, chain 1 K13A it is -0.263 Z-score of the enrichment rate within one screen of 711 sequences.
In the case of chain 1 K4A, chain 1 L12A, the screen value is -1.24 Z-score of the enrichment rate within one screen of 711 sequences.
The result for chain 1 K13H reads -0.111 Z-score of the enrichment rate within one screen of 711 sequences.
On to chain 1 K13M, for which the screen value was 0.213 Z-score of the enrichment rate within one screen of 711 sequences.
As to chain 1 K13E, the screen value was -0.899 Z-score of the enrichment rate within one screen of 711 sequences.
Take chain 1 K13C: the screen value was -0.0746 Z-score of the enrichment rate within one screen of 711 sequences.
The result for chain 1 P10A, chain 1 K13A reads -0.927 Z-score of the enrichment rate within one screen of 711 sequences; that for chain 1 K7A, chain 1 K13A, -0.71 Z-score of the enrichment rate within one screen of 711 sequences; that for chain 1 I14E, -0.921 Z-score of the enrichment rate within one screen of 711 sequences.
The result for chain 1 I14Q reads -1.07 Z-score of the enrichment rate within one screen of 711 sequences; that for chain 1 I14A, -0.785 Z-score of the enrichment rate within one screen of 711 sequences; that for chain 1 I14L, 3.12 Z-score of the enrichment rate within one screen of 711 sequences.
The result for chain 1 I14F reads -0.0574 Z-score of the enrichment rate within one screen of 711 sequences; that for chain 1 I14M, 0.51 Z-score of the enrichment rate within one screen of 711 sequences.
Turning to chain 1 I14V, the screen value was -0.578 Z-score of the enrichment rate within one screen of 711 sequences.
On to chain 1 K7A, chain 1 N9A, for which the screen value was 0.105 Z-score of the enrichment rate within one screen of 711 sequences.
With chain 1 R8A, chain 1 P15A, the screen value was 0.201 Z-score of the enrichment rate within one screen of 711 sequences.
For chain 1 K16G, the screen value was -0.443 Z-score of the enrichment rate within one screen of 711 sequences.
For the variant chain 1 K16V, the screen value was 0.706 Z-score of the enrichment rate within one screen of 711 sequences.
Turning to chain 1 K16W, the screen value was 0.661 Z-score of the enrichment rate within one screen of 711 sequences.
Consider chain 1 K16Y, for which the screen value was -0.107 Z-score of the enrichment rate within one screen of 711 sequences.
As to chain 1 K16E, the screen value was -0.612 Z-score of the enrichment rate within one screen of 711 sequences.
The figure for chain 1 K16M is 1.69 Z-score of the enrichment rate within one screen of 711 sequences; for chain 1 K16R it is 1.75 Z-score of the enrichment rate within one screen of 711 sequences; for chain 1 K16C it is 0.392 Z-score of the enrichment rate within one screen of 711 sequences.
The figure for chain 1 S3A, chain 1 I14A is -0.936 Z-score of the enrichment rate within one screen of 711 sequences.
Turning to chain 1 G5A, chain 1 G11A, the screen value is 1.18 Z-score of the enrichment rate within one screen of 711 sequences.
The result for chain 1 G5C reads 1.42 Z-score of the enrichment rate within one screen of 711 sequences.
The result for chain 1 G5A reads 1.57 Z-score of the enrichment rate within one screen of 711 sequences; that for chain 1 G5V, 1.75 Z-score of the enrichment rate within one screen of 711 sequences; that for chain 1 G5I, 2.27 Z-score of the enrichment rate within one screen of 711 sequences.
Take chain 1 G5P: the screen value was 1.65 Z-score of the enrichment rate within one screen of 711 sequences.
The figure for chain 1 G5Q is 1.53 Z-score of the enrichment rate within one screen of 711 sequences; for chain 1 G5L it is 4 Z-score of the enrichment rate within one screen of 711 sequences.
The figure for chain 1 G5D is 0.151 Z-score of the enrichment rate within one screen of 711 sequences; for chain 1 N9A, chain 1 P15A it is 1.61 Z-score of the enrichment rate within one screen of 711 sequences.
The result for chain 1 K6A, chain 1 P15A reads 1.01 Z-score of the enrichment rate within one screen of 711 sequences; that for chain 1 K7E, -0.535 Z-score of the enrichment rate within one screen of 711 sequences; that for chain 1 K7H, 0.776 Z-score of the enrichment rate within one screen of 711 sequences.
For chain 1 K7A, the screen value is 0.591 Z-score of the enrichment rate within one screen of 711 sequences.
The result for chain 1 K7Y reads 0.574 Z-score of the enrichment rate within one screen of 711 sequences.
The result for chain 1 K7N reads 1.02 Z-score of the enrichment rate within one screen of 711 sequences; that for chain 1 K7M, 1.7 Z-score of the enrichment rate within one screen of 711 sequences.
As to chain 1 K7P, the screen value was 0.368 Z-score of the enrichment rate within one screen of 711 sequences.
The result for chain 1 K7Q reads 0.531 Z-score of the enrichment rate within one screen of 711 sequences; that for chain 1 K7W, 1.32 Z-score of the enrichment rate within one screen of 711 sequences.
On to chain 1 K7C, for which the screen value was 1.13 Z-score of the enrichment rate within one screen of 711 sequences.
chain 1 K7I: the screen value was 0.69 Z-score of the enrichment rate within one screen of 711 sequences.
Take chain 1 K7F: the screen value is 1.5 Z-score of the enrichment rate within one screen of 711 sequences.
The figure for chain 1 K7T is 0.476 Z-score of the enrichment rate within one screen of 711 sequences.
In the case of chain 1 G5A, chain 1 K6A, the screen value was 1.13 Z-score of the enrichment rate within one screen of 711 sequences.
The result for chain 1 P10A, chain 1 I14A reads -0.954 Z-score of the enrichment rate within one screen of 711 sequences; that for chain 1 S3A, chain 1 P10A, 0.521 Z-score of the enrichment rate within one screen of 711 sequences; that for chain 1 G5A, chain 1 R8A, -0.162 Z-score of the enrichment rate within one screen of 711 sequences.
